Test results taken from patent US20050119456A1 (NEW YORK UNIVERSITY, published 2005).

Target: T1, GST-SMRT (Hu SMRT(1-900) fused to GST, from pGEX-6p-1) (human, UniProt Q9Y618 1-900)
T1 construct: range 1-900; Expressed in bacteria with IPTG and adsorbed onto glutathione sepharose 4B; also called GST-SMRT agarose; immobilized SMRT; not shown: glutathione S-transferase of the pGEX-6p-1 bacterial expression vector
Experiment: GST pull-down of 35S-labeled in vitro translated C21 fragment
Source text: FIGS. 15A and 15B show GST-pull-down of in vitro synthesized C21 by SMRT (1-900). Hu SMRT(1-900) cDNA was amplified by PCR and cloned in-frame into pGEX-6p-1 (GST fusion expression vector for bacterial expression). Expression of the GST fusion protein (FIG. 15A) or control (FIG. 15B) was induced with IPTG and the product adsorbed onto glutathione sepharose 4B. hC21 (full-length ORF or fragments lacking the C-terminal half(δ C), the F-box (δ F), the N terminal 40 amino acid (δ N) or a construct lacking both the N-terminus and the F-box (δN+F) was cloned in-frame into pCDNA3 vector with a Flag tag at the N-terminus. The plasmid, linearized with EcoRI, was purified and used as a template to label the product. For the pull-down experiments, 5 ng of ³⁵S-labeled hC21 protein(s) and 20 ul of GST agarose or GST-SMRT agarose were mixed. All four C21 constructs labeled with equal efficiency and the same quantity of labeled protein were used in each experiment. The denatured proteins were then electrophoresed through a 10% SDS PAGE gel.
Labeled C21 prepared by in vitro translation using 35S methionine can be “pulled-down” by immobilized SMRT. […] A fragment (21[δC]) consisting only of the first 230 amino acids (i.e., lacking all of the WD40 repeats and the carboxyl terminus) was as efficient as the full-length protein in reacting with SMRT.

T1 sequence (Q9Y618 1-900): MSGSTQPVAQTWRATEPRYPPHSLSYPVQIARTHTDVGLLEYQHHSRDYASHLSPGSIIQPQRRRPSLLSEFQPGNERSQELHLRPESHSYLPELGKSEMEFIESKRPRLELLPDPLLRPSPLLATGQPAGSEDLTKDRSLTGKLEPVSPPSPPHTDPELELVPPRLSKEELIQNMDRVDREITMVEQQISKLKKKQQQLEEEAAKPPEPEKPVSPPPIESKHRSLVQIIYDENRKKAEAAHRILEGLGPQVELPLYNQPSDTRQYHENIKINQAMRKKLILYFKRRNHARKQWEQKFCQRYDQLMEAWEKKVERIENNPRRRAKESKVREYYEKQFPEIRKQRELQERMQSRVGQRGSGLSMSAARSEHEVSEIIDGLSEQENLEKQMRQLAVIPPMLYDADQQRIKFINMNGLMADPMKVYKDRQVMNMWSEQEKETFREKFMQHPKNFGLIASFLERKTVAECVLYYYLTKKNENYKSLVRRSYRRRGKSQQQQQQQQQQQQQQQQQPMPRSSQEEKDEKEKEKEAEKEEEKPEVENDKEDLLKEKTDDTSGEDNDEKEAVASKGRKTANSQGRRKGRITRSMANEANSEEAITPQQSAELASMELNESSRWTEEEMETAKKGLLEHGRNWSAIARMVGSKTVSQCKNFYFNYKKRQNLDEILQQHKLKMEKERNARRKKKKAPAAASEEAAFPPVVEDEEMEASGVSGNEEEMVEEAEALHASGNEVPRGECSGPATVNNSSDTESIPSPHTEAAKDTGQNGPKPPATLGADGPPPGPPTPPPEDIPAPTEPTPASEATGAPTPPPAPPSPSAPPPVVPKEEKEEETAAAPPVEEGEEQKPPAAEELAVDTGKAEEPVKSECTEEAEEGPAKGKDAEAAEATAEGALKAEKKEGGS

B1: 21[5N] (other)
chain: GALVPPAALISIIQKGLQYVEAEVSINEDGTLFDGRPIESLSLIDAVMPDVVQTRQQAYRDKLAQQQAAAAAAAAAAASQQGSAKNGENTANGEENGAHTIANNHTDMMEVDGDVEIPPNKAVVLRGHESEVFICAWNPVSDLLASGSGDSTARIWNLSENSTSGSTQLVLRHCIREGGQDVPSNKDVTSLDWNSEGTLLATGSYDGFARIWTKDGNLASTLGQHKGPIFALKWNKKGNFILSAGVDKTTIIWDAHTGEAKQQFPFHSAPALDVDWQSNNTFASCSTDMCIHVCKLGQDRPIKTFQGHTNEVNAIKWDPTGNLLASCSDDMTLKIWSMKQDNCVHDLQQHNKEIYTIKWSPTGPGTNNPNANLMLASASFDSTVRLWDVDRGICIHTLTKHQEPVYSVAFSPDGRYLASGSFDKCVHIWNTQTGALVHSYRGTGGIFEVCWNAAGDKVGASASDGSVCVLDLRK
modifications: 35S-methionine label
notes: also called δ N; hC21 fragment lacking the N terminal 40 amino acid; not shown: Flag tag at the N-terminus
Question: Does B1 bind?
Answer: Result: no binding
